Assay results: paper PMC2774669 (Microbial Cell Factories, 2009)

Target: the molecule itself
Experiment: aggregation kinetics by turbidity

B1: HET-s prion forming domain (PFD), HET-s(218-289) (domain or fragment, Podospora anserina, UniProt Q03689 218-289, looked up)
chain: KIDAIVGRNSAKDIRTEERARVQLGNVVTAAALHGGIRISDQTTNSVETVVGKGESRVLIGNEYGGKGFWDN
notes: also called HET-s PFD
  binding result: binds
